In series [1] the test system is Psy-Lig K176A. In words: MST. As to conditions: 5' phosphate on S24 at nick, MST: 50 mM Tris, 100 mM NaCl, 1 mM DTT, 5 mM EDTA, 1 mM ATP, 0.5% Tween, 40 nM DNA, incubated 4 C, read 25 C, EMSA: 50 mM Tris pH 8.0, 50 mM NaCl, 0.
Series [2] has as its system Psy-Lig K193A. As to the kind of experiment: MST. As to conditions: 5' phosphate on S24 at nick, MST: 50 mM Tris, 100 mM NaCl, 1 mM DTT, 5 mM EDTA, 1 mM ATP, 0.5% Tween, 40 nM DNA, incubated 4 C, read 25 C, EMSA: 50 mM Tris pH 8.0, 50 mM NaCl, 0.
Series [3] deals with Psy-Lig K212A. In words: MST. As to conditions: 5' phosphate on S24 at nick, MST: 50 mM Tris, 100 mM NaCl, 1 mM DTT, 5 mM EDTA, 1 mM ATP, 0.5% Tween, 40 nM DNA, incubated 4 C, read 25 C, EMSA: 50 mM Tris pH 8.0, 50 mM NaCl, 0. A general note: In EMSA bound probe runs differently from free probe, usually more slowly.
Series [4] has as its system Psy-Lig K25A. In words: MST. The note with it: 5' phosphate on S24 at nick, MST: 50 mM Tris, 100 mM NaCl, 1 mM DTT, 5 mM EDTA, 1 mM ATP, 0.5% Tween, 40 nM DNA, incubated 4 C, read 25 C, EMSA: 50 mM Tris pH 8.0, 50 mM NaCl, 0.
Series [5] relates to Psy-Lig N144A. As to the kind of experiment: MST. The note with it: 5' phosphate on S24 at nick, MST: 50 mM Tris, 100 mM NaCl, 1 mM DTT, 5 mM EDTA, 1 mM ATP, 0.5% Tween, 40 nM DNA, incubated 4 C, read 25 C, EMSA: 50 mM Tris pH 8.0, 50 mM NaCl, 0.
The subject of series [6] is Psy-Lig R69A. As to the kind of experiment: MST. As to conditions: 5' phosphate on S24 at nick, MST: 50 mM Tris, 100 mM NaCl, 1 mM DTT, 5 mM EDTA, 1 mM ATP, 0.5% Tween, 40 nM DNA, incubated 4 C, read 25 C, EMSA: 50 mM Tris pH 8.0, 50 mM NaCl, 0.
In series [7] the test system is Psy-Lig R80A. In words: MST. The note with it: 5' phosphate on S24 at nick, MST: 50 mM Tris, 100 mM NaCl, 1 mM DTT, 5 mM EDTA, 1 mM ATP, 0.5% Tween, 40 nM DNA, incubated 4 C, read 25 C, EMSA: 50 mM Tris pH 8.0, 50 mM NaCl, 0.
For series [8], the system named is Psy-Lig S215A. As to the kind of experiment: MST. As to conditions: 5' phosphate on S24 at nick, MST: 50 mM Tris, 100 mM NaCl, 1 mM DTT, 5 mM EDTA, 1 mM ATP, 0.5% Tween, 40 nM DNA, incubated 4 C, read 25 C, EMSA: 50 mM Tris pH 8.0, 50 mM NaCl, 0.
In series [9] the test system is Psy-Lig WT (Lig E DNA ligase). In words: MST. The note with it: 5' phosphate on S24 at nick, MST: 50 mM Tris, 100 mM NaCl, 1 mM DTT, 5 mM EDTA, 1 mM ATP, 0.5% Tween, 40 nM DNA, incubated 4 C, read 25 C, EMSA: 50 mM Tris pH 8.0, 50 mM NaCl, 0.
The target of series [10] is T1, Ame-Lig (Alteromonas mediterranea, UniProt Z9I348I3L4).
T1 construct: predicted mature form, signal peptide omitted (cleavage between 21 and 22), codon-optimised synthetic gene in pDEST17; monomer in the asymmetric unit with nicked DNA
T1 sequence (Z9I348I3L4 2-297): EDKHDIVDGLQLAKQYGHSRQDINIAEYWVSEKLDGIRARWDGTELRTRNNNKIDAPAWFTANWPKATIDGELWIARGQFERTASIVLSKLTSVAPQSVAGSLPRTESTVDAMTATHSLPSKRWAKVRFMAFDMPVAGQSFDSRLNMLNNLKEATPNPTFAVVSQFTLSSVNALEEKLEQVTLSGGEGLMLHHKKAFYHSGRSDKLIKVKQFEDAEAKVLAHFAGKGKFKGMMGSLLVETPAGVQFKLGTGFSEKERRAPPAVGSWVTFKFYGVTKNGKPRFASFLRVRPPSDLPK
In words: molecular beacon ligation assay. It counts as biochemical. As to conditions: 0.1 mM ATP, 300 nM nicked DNA substrate, 10 mM MgCl2, pH 8.0, 30 °C.

“AGGCCATGGCTGATATCGGA / TCCGAATTCGAGCTCCGTCG / CGACGGAGCTCGAATTCGGATCCGATATCAGCCATGGCCT [nicked 40-mer (MST)]”: the K half in [1] amounted to 5.17 µM; in series [2], 2550 nM; in series [3], 7.1 µM; in [4], 3.3 µM; in series [5] it was 2450 nM; in [6], 3.08 µM. For the same compound, the K half is 3.62 µM in series [7], 1740 nM in series [8] and 980 nM in series [9].

On to `Nc1ncnc2c1ncn2[C@@H]1O[C@H](COP(=O)(O)OP(=O)(O)OP(=O)(O)O)[C@@H](O)[C@H]1O` [ATP], for which the “molecular beacon ligation assay” value in [10] is “Ligase activity of Ame-Lig and Psy-Lig mutants were measured by molecular beacon (MB) assay”.

The values are drawn from PMC6144786, “DNA binding with a minimal scaffold: structure–function analysis of Lig E DNA ligases” (Nucleic Acids Research, 2018).
